± gives the uncertainty stated by the source.
B1: POU domain, class 2, transcription factor 1, residues 285 to 354; numbered along this chain, P14859 (parent)
chain: LEELEQFAKTFKQRRIKLGFTQGDVGLAMGKLYGNDFSQTTISRFEALNLSFKNMCKLKPLLEKWLNDAE

Variants of: B1
Assay: abundance fitness (aPCA) (normalised: wild type 0, dead -1); higher = more abundant; growth selection in yeast, the domain comes from the species named
Conditions: Homo sapiens

Compared with LEELEQFAKTFKQRRIKLGFTQGDVGLAMGKGYGNDFSQTTISRFEALNLSFKNMCKLKPLLEKWLNDAE [L32G], LEELEQFAKTFKQRRIKLGFTQGDVGLAMGKHYGNDFSQTTISRFEALNLSFKNMCKLKPLLEKWLNDAE [L32H] is higher in abundance fitness: -0.107 ± 0.027 for the first, -0.004 ± 0.047 for the second.

LEELEQFAKTFKQRRIKLGFTQGDVGLAMGKKYGNDFSQTTISRFEALNLSFKNMCKLKPLLEKWLNDAE [L32K] and LEELEQFAKTFKQRRIKLGFTQGDVGLAMGKDYGNDFSQTTISRFEALNLSFKNMCKLKPLLEKWLNDAE [L32D] are within error of each other in abundance fitness: 0.031 ± 0.022 for the first, -0.078 ± 0.093 for the second.

LEELEQFAKTFKQRRIKLGFTQGDVGLAMGKAYGNDFSQTTISRFEALNLSFKNMCKLKPLLEKWLNDAE [L32A] and LEELEQFAKTFKQRRIKLGFTQGDVGLAMGKFYGNDFSQTTISRFEALNLSFKNMCKLKPLLEKWLNDAE [L32F] are within error of each other in abundance fitness: -0.006 ± 0.029 for the first, -0.193 ± 0.23 for the second.

LEELEQFAKTFKQRRIKLGFTQGDVGLAMGKEYGNDFSQTTISRFEALNLSFKNMCKLKPLLEKWLNDAE [L32E] and LEELEQFAKTFKQRRIKLGFTQGDVGLAMHKLYGNDFSQTTISRFEALNLSFKNMCKLKPLLEKWLNDAE [G30H] are within error of each other in abundance fitness: -0.005 ± 0.034 for the first, -0.068 ± 0.066 for the second.

LEELEQFAKTFKQRRIKLGFTQGDVGLAMQKLYGNDFSQTTISRFEALNLSFKNMCKLKPLLEKWLNDAE [G30Q] and LEELEQFAKTFKQRRIKLGFTQGDVGLAMIKLYGNDFSQTTISRFEALNLSFKNMCKLKPLLEKWLNDAE [G30I] are within error of each other in abundance fitness: 0.102 ± 0.12 for the first, 0.012 ± 0.026 for the second.

LEELEQFAKTFKQRRIKLGFTQGDVGLAMTKLYGNDFSQTTISRFEALNLSFKNMCKLKPLLEKWLNDAE [G30T] and LEELEQFAKTFKQRRIKLGFTQGDVGLAMMKLYGNDFSQTTISRFEALNLSFKNMCKLKPLLEKWLNDAE [G30M] are within error of each other in abundance fitness: -0.028 ± 0.043 for the first, -0.024 ± 0.04 for the second.

LEELEQFAKTFKQRRIKLGFTQGDVGLAMRKLYGNDFSQTTISRFEALNLSFKNMCKLKPLLEKWLNDAE [G30R] and LEELEQFAKTFKQRRIKLGFTQGDVGLAMYKLYGNDFSQTTISRFEALNLSFKNMCKLKPLLEKWLNDAE [G30Y] are within error of each other in abundance fitness: 0.01 ± 0.028 for the first, 0.002 ± 0.045 for the second.

LEELEQFAKTFKQRRIKLGFTQGDVGLAMKKLYGNDFSQTTISRFEALNLSFKNMCKLKPLLEKWLNDAE [G30K] and LEELEQFAKTFKQRRIKLGFTQGDVGLAMFKLYGNDFSQTTISRFEALNLSFKNMCKLKPLLEKWLNDAE [G30F] are within error of each other in abundance fitness: -0.034 ± 0.074 for the first, 0.014 ± 0.024 for the second.

First: LEELEQFAKTFKQRRIKLGFTQGDVGLAMPKLYGNDFSQTTISRFEALNLSFKNMCKLKPLLEKWLNDAE [G30P]
Second: LEELEQFAKTFKQRRIKLGFTQGDVGLAMSKLYGNDFSQTTISRFEALNLSFKNMCKLKPLLEKWLNDAE [G30S]
The abundance fitness of the first is lower: -0.209 ± 0.044 for the first, -0.019 ± 0.026 for the second.

LEELEQFAKTFKQRRIKLGFTQGDVGLAMWKLYGNDFSQTTISRFEALNLSFKNMCKLKPLLEKWLNDAE [G30W] and LEELEQFAKTFKQRRIKLGFTQGDVGLAMLKLYGNDFSQTTISRFEALNLSFKNMCKLKPLLEKWLNDAE [G30L] are within error of each other in abundance fitness: 0.006 ± 0.024 for the first, -0.015 ± 0.02 for the second.

LEELEQFAKTFKQRRIKLGFTQGDVGLAMNKLYGNDFSQTTISRFEALNLSFKNMCKLKPLLEKWLNDAE [G30N] and LEELEQFAKTFKQRRIKLGFTQGDVGLAMGGLYGNDFSQTTISRFEALNLSFKNMCKLKPLLEKWLNDAE [K31G] are within error of each other in abundance fitness: -0.113 ± 0.098 for the first, -0.066 ± 0.025 for the second.

LEELEQFAKTFKQRRIKLGFTQGDVGLAMGYLYGNDFSQTTISRFEALNLSFKNMCKLKPLLEKWLNDAE [K31Y] and LEELEQFAKTFKQRRIKLGFTQGDVGLAMGVLYGNDFSQTTISRFEALNLSFKNMCKLKPLLEKWLNDAE [K31V] are within error of each other in abundance fitness: -0.069 ± 0.13 for the first, -0.126 ± 0.028 for the second.

Going from LEELEQFAKTFKQRRIKLGFTQGDVGLAMGCLYGNDFSQTTISRFEALNLSFKNMCKLKPLLEKWLNDAE [K31C] to LEELEQFAKTFKQRRIKLGFTQGDVGLAMGHLYGNDFSQTTISRFEALNLSFKNMCKLKPLLEKWLNDAE [K31H], the abundance fitness rises from -0.12 ± 0.047 to 0.003 ± 0.062.

LEELEQFAKTFKQRRIKLGFTQGDVGLAMGQLYGNDFSQTTISRFEALNLSFKNMCKLKPLLEKWLNDAE [K31Q] and LEELEQFAKTFKQRRIKLGFTQGDVGLAMGALYGNDFSQTTISRFEALNLSFKNMCKLKPLLEKWLNDAE [K31A] are within error of each other in abundance fitness: -0.034 ± 0.038 for the first, -0.027 ± 0.023 for the second.

Going from LEELEQFAKTFKQRRIKLGFTQGDVGLAMGLLYGNDFSQTTISRFEALNLSFKNMCKLKPLLEKWLNDAE [K31L] to LEELEQFAKTFKQRRIKLGFTQGDVGLAMGWLYGNDFSQTTISRFEALNLSFKNMCKLKPLLEKWLNDAE [K31W], the abundance fitness falls from -0.166 ± 0.026 to -0.323 ± 0.034.

LEELEQFAKTFKQRRIKLGFTQGDVGLAMGDLYGNDFSQTTISRFEALNLSFKNMCKLKPLLEKWLNDAE [K31D] and LEELEQFAKTFKQRRIKLGFTQGDVGLAMGSLYGNDFSQTTISRFEALNLSFKNMCKLKPLLEKWLNDAE [K31S] are within error of each other in abundance fitness: -0.029 ± 0.13 for the first, -0.068 ± 0.029 for the second.

First: LEELEQFAKTFKQRRIKLGFTQGDVGLAMGFLYGNDFSQTTISRFEALNLSFKNMCKLKPLLEKWLNDAE [K31F]
Second: LEELEQFAKTFKQRRIKLGFTQGDVGLAMGELYGNDFSQTTISRFEALNLSFKNMCKLKPLLEKWLNDAE [K31E]
The abundance fitness of the first is lower: -0.126 ± 0.066 for the first, 0.058 ± 0.054 for the second.

Going from LEELEQFAKTFKQRRIKLGFTQGDVGLAMGPLYGNDFSQTTISRFEALNLSFKNMCKLKPLLEKWLNDAE [K31P] to LEELEQFAKTFKQRRIKLGFTQGDVGLAMGMLYGNDFSQTTISRFEALNLSFKNMCKLKPLLEKWLNDAE [K31M], the abundance fitness falls from -0.115 ± 0.022 to -0.256 ± 0.057.

Compared with LEELEQFAKTFKQRRIKLGFTQGDVGLAMGRLYGNDFSQTTISRFEALNLSFKNMCKLKPLLEKWLNDAE [K31R], LEELEQFAKTFKQRRIKLGFTQGDVGLAMGNLYGNDFSQTTISRFEALNLSFKNMCKLKPLLEKWLNDAE [K31N] is lower in abundance fitness: 0.018 ± 0.02 for the first, -0.217 ± 0.11 for the second.

LEELEQFAKTFKQRRIKLGFTQGDVGLAMGILYGNDFSQTTISRFEALNLSFKNMCKLKPLLEKWLNDAE [K31I] gave an abundance fitness of -0.495 ± 0.31.

Source: the Human Domainome abundance scans (Beltran et al. 2025)
